Source: patent publication US20210284709A1 (JUNO THERAPEUTICS, published 2021)

Legend:
[1] = biological target: HLA-A2/E6(29-38) tetramer (human; HPV 16); test: cell-based or functional assay
[2] = biological target: HLA-A2/E7(11-19) tetramer (human; HPV 16); test: cell-based or functional assay
[3] = biological target: T1, HLA-A2/E6(29-38) tetramer (human; HPV 16); test: flow cytometry, tetramer + anti-CD8; transfected Jurkat-derived cells, CD8+ cells
T1 construct: also called E6(29-38) peptide-MHC tetramer; E6 tet
Protocol: For transfection, the CD4+ and CD4+/CD8+ cell mixtures were transiently transfected with TCR-encoding plasmids and 48 hours after transfection, cells were assessed by flow cytometry for (1) binding of the target peptide in the context of an MHC molecule (HLA:A02:01) by staining with an E6(29-38) peptide- or an E7(11-19) peptide-MHC tetramer reagent, and/or (2) CD8+ independent binding of the target by co-staining the tetramer-labeled cells with an anti-CD8 antibody.

[4] = biological target: T1, HLA-A2/E6(29-38) tetramer; test: tetramer staining of clonal T cell line vs control

B1: modified version of TCR 9 (TCR)
TCR alpha: AQKITQTQPGMFVQEKEAVTLDCTYDTSDPSYGLFWYKQPSSGEMIFLIYQGSYDQQNATEGRYSLNFQKARKSANLVISASQLGDSAMYFCAMRTAGGTSYGKLTFGQGTILTVHPNIQNPDPAVYQLRDSKSSDKSVCLFTDFDSQTNVSQSKDSDVYITDKCVLDMRSMDFKSNSAVAWSNKSDFACANAFNNSIIPEDTFFPSPESSCDVKLVEKSFETDTNLNFQNLSVIGFRILLLKVAGFNLLMTLRLWSS
TCR beta: NAGVTQTPKFRVLKTGQSMTLLCAQDMNHEYMYWYRQDPGMGLRLIHYSVGEGTTAKGEVPDGYNVSRLKKQNFLLGLESAAPSQTSVYFCASSYFGTAYEQYFGPGTRLTVTEDLKNVFPPEVAVFEPSEAEISHTQKATLVCLATGFYPDHVELSWWVNGKEVHSGVCTDPQPLKEQPALNDSRYCLSSRLRVSATFWQNPRNHFRCQVQFYGLSENDEWTQDRAKPVTQIVSAEAWGRADCGFTSESYQQGVLSATILYEILLGKATLYAVLVSALVLMAMVKRKDSRG
For B1, the “% CD8+/IC IFNγ+” value [1] was 91.1%, the “% CD8+/IC IFNγ+” value [2] was 19.5% and the “% cells E6 tet+/CD8+ quadrant” value [3] was 42.5%. The “% cells E6 tet+/CD8- quadrant” value [3] was 0.051%.

B2: modified version of TCR 7 (TCR, V domains shown)
V domain 1: KNQVEQSPQSLIILEGKNCTLQCNYTVSPFSNLRWYKQDTGRGPVSLTIMTFSENTKSNGRYTATLDADTKQSSLHITASQLSDSASYICVVSRDNYGQNFVFGPGTRLSVLP
V domain 2: EPEVTQTPSHQVTQMGQEVILRCVPISNHLYFYWYRQILGQKVEFLVSFYNNEISEKSEIFDDQFSVERPDGSNFTLKIRSTKLEDSAMYFCAITDRTNYGYTFGSGTRLTVVE
For B2, the “% CD8+/IC IFNγ+” value [1] was 70.5% and the “% CD8+/IC IFNγ+” value [2] was 62.4%.

B3: TCR 10 (native, clonal T cell line) (TCR, V domains shown)
V domain 1: RKEVEQDPGPFNVPEGATVAFNCTYSNSASQSFFWYRQDCRKEPKLLMSVYSSGNEDGRFTAQLNRASQYISLLIRDSKLSDSATYLCVVNFPSRGAGGTSYGKLTFGQGTILTVHP
V domain 2: DVKVTQSSRYLVKRTGEKVFLECVQDMDHENMFWYRQDPGLGLRLIYFSYDVKMKEKGDIPEGYSVSREKKERFSLILESASTNQTSMYLCASSLSLTGNYGYTFGSGTRLTVVE
B3: binds [4].
